Source: article PMC4819454 (ACS Central Science, 2016)
Like-named read-outs stand apart in the source and are kept apart here.

What was measured:
[1] = target: porcine pancreatic α-amylase (porcine) (UniProt P00690); experiment: enzyme inhibition kinetics
[2] = target: human pancreatic α-amylase (human) (UniProt P04746); experiment: enzyme inhibition kinetics
HPA = conditions: read-out: Ki against HPA, cited from earlier work
[3] = cited from earlier work
[4] = cited from earlier work; remark: listed apart in the source

Sequence of UniProt P04746 (P04746 16-511): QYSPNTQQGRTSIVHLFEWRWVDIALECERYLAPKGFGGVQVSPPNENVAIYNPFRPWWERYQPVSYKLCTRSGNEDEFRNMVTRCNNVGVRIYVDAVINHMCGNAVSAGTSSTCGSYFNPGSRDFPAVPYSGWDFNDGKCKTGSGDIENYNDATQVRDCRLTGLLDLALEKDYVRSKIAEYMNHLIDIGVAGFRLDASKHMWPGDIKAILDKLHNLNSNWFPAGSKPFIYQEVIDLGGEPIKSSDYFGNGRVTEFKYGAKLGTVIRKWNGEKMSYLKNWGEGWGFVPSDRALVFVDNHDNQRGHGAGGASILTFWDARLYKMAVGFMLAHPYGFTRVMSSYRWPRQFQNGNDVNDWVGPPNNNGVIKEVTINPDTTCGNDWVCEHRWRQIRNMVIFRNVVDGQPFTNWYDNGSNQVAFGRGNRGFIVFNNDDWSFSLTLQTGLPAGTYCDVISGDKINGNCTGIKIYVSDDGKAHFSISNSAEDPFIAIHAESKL
Sequence of UniProt P00690 (P00690 16-511): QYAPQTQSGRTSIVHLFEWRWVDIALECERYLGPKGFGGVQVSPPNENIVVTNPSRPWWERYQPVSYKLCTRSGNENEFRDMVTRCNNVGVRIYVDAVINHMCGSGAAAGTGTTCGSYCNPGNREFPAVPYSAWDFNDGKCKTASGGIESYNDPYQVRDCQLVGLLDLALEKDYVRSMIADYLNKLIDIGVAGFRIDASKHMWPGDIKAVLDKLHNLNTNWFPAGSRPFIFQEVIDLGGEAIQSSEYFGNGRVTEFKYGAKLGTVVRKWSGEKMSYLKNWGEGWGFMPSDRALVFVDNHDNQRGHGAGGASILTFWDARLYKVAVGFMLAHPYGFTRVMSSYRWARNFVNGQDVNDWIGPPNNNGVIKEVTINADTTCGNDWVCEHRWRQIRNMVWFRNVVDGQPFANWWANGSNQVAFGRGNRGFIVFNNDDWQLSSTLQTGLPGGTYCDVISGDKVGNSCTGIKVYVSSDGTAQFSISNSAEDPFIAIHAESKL

With recombinant helianthamide (peptide) the Ki [1] was 0.1 nM and the Ki [2] was 0.01 nM.

In the case of Montbretin A [reference compound], the Ki (HPA) is given as 8 nM.

B1: tendamistat: 74-residue peptide with two disulfide bonds from Streptomyces tendae (protein, UniProt P01092 31-104, looked up)
Alpha-amylase inhibitor …: DTTVSEPAPSCVTLYQSWRYSQADNGCAQTVTVKVVYEDDTEGLCYAVAPGQITTVGDGYIGSHGHARYLARCL
In the case of B1, the immunogenicity ([3]; clinic) is listed as “pronounced immunogenicity”, the “blood plasma glucose levels” value ([3]; clinical trials) is listed as “significant decrease in blood plasma glucose levels” and the Ki (HPA; estimated) is listed as 0.009 to 0.2 nM. For the same molecule, the vulnerability to degradation [4] was “vulnerability to degradation”.
